Measured values taken from patent US9664676B2, “RNA sequences that induce fluorescence of small molecule fluorophores” (Cornell University, priority 2013, dated 2017).

Assays:
[1] = taken from Song et al.; cited from earlier work
[2] = test system: (CGG)60-Spinach2 foci; assay: Effects of drugs on CGG RNA foci in COS-7 cells expressing (CGG)60-Spinach2; format: cell-based
Experimental: Transfection of COS-7 Cells and Live Cell Imaging: COS-7 cells (ATCC-CRL-1651) were cultured and passaged in DMEM supplemented with 50 units of penicillin and 50 μg of streptomycin per milliliter. For imaging experiments, cells were grown on cells cultured on 24-well glass-bottom dishes and transfected with 0.6 μg of pCDNA-60CGG-Spinach or pCDNA-60CGG-Spinach2 using FuGeneHD (Roche) per the manufacturer's instructions in DMEM medium lacking penicillin and streptomycin. Cells were imaged in CO2-independent medium (Invitrogen) supplemented with L-glutamine. At 30 min-1 h before imaging, medium was supplemented with 25 mM HEPES, 5 mM MgSO4, 1 μg/ml Hoechst 33342 (when appropriate) and 20 μM DFHBI or vehicle. Live fluorescence images were acquired in a temperature-controlled chamber at 35-37° C. with a CoolSnap HQ2 CCD camera through a 60× oil objective (Plan Apo 1.4 numerical aperture (NA)) mounted on a Nikon TE2000 epifluorescence microscope and analyzed with the NIS-Elements software. Spinach was imaged with a filter cube typically used for fluorescein or EGFP, with a sputter-coated excitation filter 470/40 nm, dichroic mirror 495 nm (long-pass), and emission filter 525/50 (Chroma Technology). DsRed-Max and mCherry were imaged using a filter cube typically used for Texas Red, with a sputter coated excitation filter 560/40 nm and emission filter 630/75 nm (Chroma Technology). Background intensity was subtracted from all pixel intensity measurements. Image analyses were completed with NIS-Elements AR 3.2 (Nikon). Drug treatments were carried out as specified. Tautomycin was used at a final concentration of 5 μM in all cases. 1a was used at a final concentration 20 μM in all cases. DMSO was added to a final concentration of 0.1% for vehicle treatments.

[3] = Thermostability measurements of Spinach RNAs with DFHBI; format: physicochemical; details: fluorescence of RNA-DFHBI complex in vitro, 20-60 °C; ±s.e.m.
Experimental: Thermostability Measurements: Spinach or Spinach2 (1 μM) was incubated in 20 mM HEPES pH 7.4, 100 mM KCl, 1 mM MgCl2 and 10 μM DFHBI. Fluorescence values were recorded in 1° C. increments from 20° C. to 60° C., with a 5-min incubation at each temperature to allow for equilibration. Fluorescence measurements were performed using a PerkinElmer LS-55 fluorescence spectrometer using the following instrument parameters: excitation wavelength, 460 nm; emission wavelength, 501 nm; slit widths, 10 nm. Curves were fitted using the Boltzmann sigmoidal equation in GraphPad Prism 5 software. Values presented are mean and s.e.m. from three independent measurements.

[4] = Folding assay (fraction of RNA folded, DFHBI); format: physicochemical
Experimental: Folding Assay: The folding assay involves measurement of fluorescence under two conditions, one in which RNA is in excess relative to DFHBI, and one in which the DFHBI is in excess relative to RNA. As Spinach and DFHBI form a 1:1 stoichiometric complex, the maximum amount of complex that can be formed is determined by the limiting component. In the first condition, the fluorescence was determined by incubation of 0.1 μM DFHBI and 100-fold excess (10 μM) Spinach. This value was used to define the fluorescence of 0.1 μM Spinach-DFHBI complex. It was assumed that even if nearly all Spinach is misfolded or unfolded, there will be enough properly folded Spinach to stoichiometrically bind 0.1 μM DFHBI. This was confirmed by measuring fluorescence after doubling the RNA to 20 μM, which caused no increase in fluorescence. In the second condition, the fluorescence obtained using 10 μM DFHBI and 0.1 μM Spinach was measured. In theory, up to 0.1 μM Spinach-DFHBI can form if all the Spinach is folded. However, if a portion of Spinach is unfolded, the fluorescence will be proportionately less than the fluorescence of 0.1 μM Spinach-DFHBI. Thus, this approach can reveal the fraction of Spinach that is folded under diverse conditions.
Fluorescence was measured for each RNA under the following conditions: (i) 0.1 μM RNA and 10 μM DFHBI, and (ii) 0.1 μM DFHBI and 10 μM RNA. For each condition, the signal from DFHBI without RNA was subtracted from each signal. Fluorescence was measured in 20 mM HEPES pH 7.4, 100 mM KCl and 1 mM MgCl2 at the designated temperature. Fluorescence measurements were performed using a PerkinElmer LS-55 fluorescence spectrometer using the following instrument parameters: excitation wavelength, 460 nm; emission wavelength, 501 nm; slit widths, 10 nm. Signal from the first condition (limiting RNA) was divided by the signal from the second condition (limiting dye) to determine the fraction folded.

[5] = In vitro fluorescence (brightness) of Spinach RNAs, mutants and flanked/fused constructs with DFHBI; format: biochemical; details: for Percent Brightness (at 42° C.): percent of signal remaining at 42 °C for a given mutant; for Relative Brightness (at 25° C.): relative to Spinach
From the text: Preparation and Analysis of Spinach and Spinach Mutants: RNAs were created by using the appropriate single-stranded DNA templates (Integrated DNA Technologies) and PCR amplification using primers that included a 5′ T7 promoter sequence to generate double-stranded DNA templates. PCR products were then purified with PCR purification columns (Qiagen) and used as templates for in vitro T7 transcription reactions (Epicentre) as described previously (Paige et al., “RNA mimics of green fluorescent protein,” Science 333: 642-646 (2011), which is hereby incorporated by reference in its entirety). RNA was purified using ammonium acetate precipitation, and quantified using both absorbance values and the Riboquant Assay kit (BD Biosciences). Photophysical characterization of Spinach2 was carried out as previously described (Paige et al., “RNA mimics of green fluorescent protein,” Science 333: 642-646 (2011), which is hereby incorporated by reference in its entirety).
Preparation and In Vitro Analysis of Flanked Spinach and Spinach2 Constructs: Spinach and Spinach2 constructs flanked on either side by 50 base pairs were generated by PCR. For Spinach, the following primers were used:
The 50-base-pair sequences were taken from the human β-actin 3′ untranslated region. Both forward primers encode the T7 RNA polymerase promoter for in vitro transcription. 5S-Spinach and 5S-Spinach2 were amplified by PCR from pAV-5S-Spinach and pAV-5S-Spinach2, respectively, using the following primers: […]
PCR products were used as templates for in vitro transcription by Ampliscribe T7 RNA polymerase as previously described (Paige et al., “RNA mimics of green fluorescent protein,” Science 333: 642-646 (2011), which is hereby incorporated by reference in its entirety). Fluorescence measurements were recorded for 0.1 μM RNA in the presence of 10 μM DFHBI in buffer composed of 20 mM HEPES pH 7.4, 100 mM KCl and […] as described above.
Next, systematic mutagenesis was carried out to identify thermostable Spinach mutants with improved folding. Because elevated G+C content can lead to stable misfolded structures (Kiliszek et al., “Crystal Structures of CGG RNA Repeats with Implications for Fragile X-Associated Tremor Attaxia Syndrome,” Nuc. Acids Res. 39:7308-7315 (2011); Sobczak et al., “RNA Structure of Trinucleotide Repeats Associated with Human Neurological Diseases,” Nuc. Acids Res. 31:5469-5482 (2003), each of which is hereby incorporated by reference in its entirety), it was reasoned that decreasing the overall G+C content could promote proper folding. Scanning mutagenesis was carried out, mutating every […] and cytosine to adenosine or uracil, respectively. In regions where G and C residues were predicted to form a base pair, both residues were mutated to A and U, to maintain the complementarity. Each of these 35 mutants was synthesized in vitro, and the fraction folded was measured at 25° C. and 42° C. Fluorescence signals that were equal to or greater than Spinach at 25° C. indicated equal or greater percent folded. A higher percentage signal at 42° C. indicated improved thermostability relative to Spinach.

Question: With `CC1=N/C(=C\c2cc(F)c(O)c(F)c2)C(=O)N1CC(F)(F)F` [DFHBI-1T] as the molecule, how does the Abs max [1] read?
Answer: 423 nm

Question: What about the Brightness [1] of the same molecule?
Answer: 0.12

Question: And the Em max [1]?
Answer: 495 nm

Question: And the Ex max [1]?
Answer: 426 nm

Question: What about the Ext. coeff. [1] of the same molecule?
Answer: 35,400 M^−1cm^−1

Question: And the Quantum yield [1]?
Answer: 0.00098

Question: For `C=C1[C@@H](O)[C@@H]2O[C@]3(CC[C@H](/C=C/[C@@H](C)[C@@H]4CC(C)=C[C@@]5(O[C@H](C[C@@](C)(O)C(=O)O)CC[C@H]5O)O4)O3)CC[C@H]2O[C@@H]1[C@@H](O)C[C@H](C)[C@H]1O[C@@]2(CCCCO2)CC[C@H]1C` [okadaic acid], which “disruption of existing foci” value ([2]; 1a: imaging every 5 min for 2 h, okadaic acid: over 4 h) is on record?
Answer: No disruption of foci

Question: What does the source list for `CO[C@H]([C@H](O)CC(=O)[C@@H](C)[C@@H](O)CC[C@@H](C)[C@@H]1O[C@]2(CC[C@@H](C)[C@H](CC[C@H](C)C(C)=O)O2)CC[C@@H]1C)[C@H](OC(=O)C[C@@H](O)C1=C(C)C(=O)OC1=O)C(C)C` [tautomycin]?
Answer: time to disaggregation of existing foci ([2]; 5 μM): 1 h; effect on formation of (CGG)60-Spinach2 foci ([2]; 20 μM 1a or 5 μM tautomycin): prevented formation of (CGG)60-Spinach2 foci; nuclei containing foci ([2]; 24 h treatment, 20 μM 1a or 5 μM tautomycin, ±s.e.m.): 12±4.2%

B1: Spinach: RNA aptamer binding DFHBI, SEQ ID NO: 1 (nucleic acid)
chain: GACGCAACUGAAUGAAAUGGUGAAGGACGGGUCCAGGUGUGGCUGCUUCGGCAGUGCAGCUUGUUGAGUAGAGUGUGAGCUCCGUAACUAGUCGCGUC
modifications: listed as RNA, chemistry not given here
Question: Which results are given for B1?
Answer: melting temperature (Tm) [3]: 34±0.6 °C; percentage folded ([4]; 25 °C, in the presence of the tRNA (tRNA^Lys3 scaffold)): 50±3.9%; percentage folded ([4]; 25 °C, no tRNA scaffold): 32±4.2%; percentage folded ([4]; 37 °C, in the presence of the tRNA (tRNA^Lys3 scaffold)): 24±2.4%; percentage folded ([4]; 37 °C, no tRNA scaffold): 13±2.8%; fluorescence when fused to the CGG repeat-containing RNA [5]: essentially nonfluorescent; brightness of flanked RNA relative to the same aptamer alone ([5]; flanked by 50 nt of RNA on both 5′ and 3′ ends, 0.1 μM RNA): 20%; Percent Brightness (at 42° C.) [5]: 19%; Relative Brightness (at 25° C.) ([5]; 25 °C): 1.0

B2: Spinach1.1: Spinach mutant with perfect complementarity in stem 1, SEQ ID NO: 30 (nucleic acid)
chain: GACGCGACCGAATGAAATGGTGAAGGACGGGTCCAGGTGTGGCTGCTTCGGCAGTGCAGCTTGTTGAGTAGAGTGTGAGCTCCGTAACTGGTCGCGTC
modifications: listed as DNA, chemistry not given here
Question: What does the source list for B2?
Answer: melting temperature (Tm) [3]: 35±0.5 °C; brightness compared to Spinach ([5]; 1 μM RNA, 10 μM DFHBI, 25 °C): as bright as Spinach

B3: Spinach1.2: Spinach mutant with perfect complementarity in stem 1 and stem loop 3, SEQ ID NO: 31 (nucleic acid)
chain: GACGCGACCGAATGAAATGGTGAAGGACGGGTCCAGCCGGCTGCTTCGGCAGCCGGCTTGTTGAGTAGAGTGTGAGCTCCGTAACTGGTCGCGTC
modifications: listed as DNA, chemistry not given here
Question: With B3 as the molecule, how does the “melting temperature (Tm)” value [3] read?
Answer: 38±0.3 °C

Question: What about the percentage folded ([4]; 25 °C, no tRNA scaffold) of the same molecule?
Answer: 27±2.1%

Question: And the percentage folded ([4]; 37 °C, no tRNA scaffold)?
Answer: 16±2.3%

Question: What about the “dimmer than Spinach” value ([5]; 1 μM RNA, 10 μM DFHBI, 25 °C) of the same molecule?
Answer: 16%

Question: And the “Percent Brightness (at 42° C.)” value [5]?
Answer: 41%

Question: And the “Relative Brightness (at 25° C.)” value ([5]; 25 °C)?
Answer: 0.8
